# Test results reported in patent USRE50631 (VELOSBIO, dated 2025).
# Columns and labels:
# [1] = biological target: T1, human receptor tyrosine kinase like orphan receptor 1 (ROR1) (human, UniProt Q01973 30-937); assay: flow cytometry on Jeko-1 cells
# T1 construct: whole, on cells; Target in all assays is endogenous ROR1 on human tumor cell lines; the cell line is named under assay; also called cell surface ROR1
# [2] = biological target: T1, human receptor tyrosine kinase like …; assay: flow cytometry on Jeko-1 cells (FIG. 3A)
# [3] = biological target: T1, human receptor tyrosine kinase like …; assay: binding to Jeko-1 cells; column 'ADC-A Binding KD (nM)', method not described
# [4] = biological target: T1, human receptor tyrosine kinase like …; assay: flow cytometry on Jeko-1 cells (FIG. 3B)
# [5] = biological target: T1, human receptor tyrosine kinase like …; assay: binding to MDA-MB-231 cells; column 'ADC-A Binding KD (nM)', method not described
# [6] = biological target: T1, human receptor tyrosine kinase like …; assay: cell-based or functional assay
# [7] = biological target: T1, human receptor tyrosine kinase like …; assay: flow cytometry on MDA-MB-231 cells
# [8] = biological target: T1, human receptor tyrosine kinase like …; assay: binding to Jeko cells; column 'ADC-R Binding KD (nM)', method not described
# [9] = biological target: T1, human receptor tyrosine kinase like …; assay: binding to Jeko cells; column 'ADC-Q Binding KD (nM)', method not described
# T1 sequence (Q01973 30-937): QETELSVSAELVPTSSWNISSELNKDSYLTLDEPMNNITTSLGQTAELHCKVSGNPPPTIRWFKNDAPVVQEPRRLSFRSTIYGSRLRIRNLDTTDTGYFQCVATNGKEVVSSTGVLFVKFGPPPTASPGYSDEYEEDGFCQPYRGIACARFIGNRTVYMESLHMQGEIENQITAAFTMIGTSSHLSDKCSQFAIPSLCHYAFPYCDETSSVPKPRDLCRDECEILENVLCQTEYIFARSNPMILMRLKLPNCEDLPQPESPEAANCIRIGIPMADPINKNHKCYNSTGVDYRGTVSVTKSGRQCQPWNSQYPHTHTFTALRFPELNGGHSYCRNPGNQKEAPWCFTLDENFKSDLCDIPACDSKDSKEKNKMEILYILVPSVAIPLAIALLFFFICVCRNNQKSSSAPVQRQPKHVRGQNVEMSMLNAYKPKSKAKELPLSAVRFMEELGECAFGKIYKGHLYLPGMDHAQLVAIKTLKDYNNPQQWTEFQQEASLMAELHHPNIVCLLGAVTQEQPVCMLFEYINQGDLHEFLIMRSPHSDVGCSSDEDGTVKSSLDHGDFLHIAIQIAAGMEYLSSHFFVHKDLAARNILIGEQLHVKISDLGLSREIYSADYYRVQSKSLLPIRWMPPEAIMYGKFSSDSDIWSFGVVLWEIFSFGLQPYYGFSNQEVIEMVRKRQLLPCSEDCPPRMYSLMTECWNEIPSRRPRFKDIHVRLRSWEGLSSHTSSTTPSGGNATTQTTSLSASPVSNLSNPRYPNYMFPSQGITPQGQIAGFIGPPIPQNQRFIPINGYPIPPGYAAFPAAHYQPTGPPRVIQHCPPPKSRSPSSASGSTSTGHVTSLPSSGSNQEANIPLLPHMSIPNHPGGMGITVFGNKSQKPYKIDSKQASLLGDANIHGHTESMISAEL
binder,measurement,setting,value
"ADC-A (antibody, human IgG1, kappa, V domains shown, MC-VC-PAB-MMAE bonded via cysteine residues of the antibody (chain and positions not stated); MC-VC-PAB-MMAE bonded via cysteine residues of the antibody (chain and positions not stated); DAR 3.89 to 5.09, Antibody-drug conjugate of Ab1; also called Ab1-MC-VC-PAB-MMAE) VH: QVQLQESGPGLVKPSQTLSLTCTVSGYAFTAYNIHWVRQAPGQGLEWMGSFDPYDGGSSYNQKFKDRLTISKDTSKNQVVLTMTNMDPVDTATYYCARGWYYFDYWGHGTLVTVSS VL: DIVMTQTPLSLPVTPGEPASISCRASKSISKYLAWYQQKPGQAPRLLIYSGSTLQSGIPPRFSGSGYGTDFTLTINNIESEDAAYYFCQQHDESPYTFGEGTKVEIKR",EC50,[1],0.017 mg/L
same,EC50,[2],0.0216 mg/L
same,Kd,[3],0.0001 µM
same,EC50,[4],0.0221 mg/L
same,Kd,[5],0.00032 µM
same,"IC50, cell viability (CellTiter-Glo, 72 h), A2008 cells",[6],0.125 µM
same,"IC50, cell viability (CellTiter-Glo, 72 h), Bt549 cells",[6],0.0135 µM
same,"IC50, cell viability (CellTiter-Glo, 72 h), DOHH2 cells",[6],0.129 µM
same,"IC50, cell viability (CellTiter-Glo, 72 h), HBL-1 cells",[6],0.118 µM
same,"IC50, cell viability (CellTiter-Glo, 72 h), HCC1187 cells",[6],0.0068 µM
same,"IC50, cell viability (CellTiter-Glo, 72 h), JHOM1 cells",[6],0.0156 µM
same,"IC50, cell viability (CellTiter-Glo, 72 h), MDA-MB-468 cells",[6],0.0235 µM
same,"IC50, cell viability (CellTiter-Glo, 72 h), SKOvr3 cells",[6],0.0626 µM
same,"IC50, cell viability (CellTiter-Glo, 72 h), TMD-8 cells",[6],0.122 µM
same,"IC50, cell viability (CellTiter-Glo, 72 h), TOV112D cells",[6],0.0624 µM
same,EC50,[7],0.0485 mg/L
"ADC-R (antibody, human IgG1, kappa, V domains shown, deglycosylated with PNGase F; azido-PEG3-amine put on glutamine residues by microbial transglutaminase, then DBCO-PEG4-VC-PAB-DMEA-PNU-159682 via a triazole (chain and positions not stated); DAR 2.1, also called Ab1-DBCO-PEG4-VC-PAB-DMEA-PNU-159682) VH: QVQLQESGPGLVKPSQTLSLTCTVSGYAFTAYNIHWVRQAPGQGLEWMGSFDPYDGGSSYNQKFKDRLTISKDTSKNQVVLTMTNMDPVDTATYYCARGWYYFDYWGHGTLVTVSS VL: DIVMTQTPLSLPVTPGEPASISCRASKSISKYLAWYQQKPGQAPRLLIYSGSTLQSGIPPRFSGSGYGTDFTLTINNIESEDAAYYFCQQHDESPYTFGEGTKVEIKR",Kd,[8],0.00025 µM
"ADC-Q (antibody, human IgG1, kappa, V domains shown, deglycosylated with PNGase F; azido-PEG3-amine put on glutamine residues by microbial transglutaminase, then DBCO-(PEG2-VC-PAB-MMAE)2 via a triazole (chain and positions not stated); DAR 4.4, also called Ab1-DBCO-(PEG2-VC-PAB-MMAE)2) VH: QVQLQESGPGLVKPSQTLSLTCTVSGYAFTAYNIHWVRQAPGQGLEWMGSFDPYDGGSSYNQKFKDRLTISKDTSKNQVVLTMTNMDPVDTATYYCARGWYYFDYWGHGTLVTVSS VL: DIVMTQTPLSLPVTPGEPASISCRASKSISKYLAWYQQKPGQAPRLLIYSGSTLQSGIPPRFSGSGYGTDFTLTINNIESEDAAYYFCQQHDESPYTFGEGTKVEIKR",Kd,[9],0.00023 µM
